Experimental findings from paper PMC4387078 are described below.

Substrate in series [1]: NCCc1ccc(O)c(O)c1
The experiment in a line: spectrophotometric laccase assay, product formation. The class given is biochemical, Drosophila melanogaster. Conditions: pH 7.0.

Substrate in series [2]: Oc1ccc(O)cc1
The series is described as above. It counts as biochemical, Drosophila melanogaster. Conditions: pH 7.0.

Substrate in series [3]: O=C1O[C@H]([C@@H](O)CO)C(O)=C1O
Put plainly: purified protein. Conditions: 0.1 M sodium phosphate.

Substrate in series [4]: NCCc1ccc(O)c(O)c1
Put plainly: spectrophotometric laccase assay, product formation. It counts as biochemical, Anopheles gambiae. Conditions: pH 7.0.

Substrate in series [5]: Oc1ccc(O)cc1
The description is as above. The class given is biochemical, Anopheles gambiae. Conditions: pH 7.0.

Substrate in series [6]: O=C1O[C@H]([C@@H](O)CO)C(O)=C1O
The experiment in a line: purified protein. It counts as biochemical, Anopheles gambiae. Conditions: 0.1 M sodium phosphate, pH 7.0, allosteric sigmoidal fit.

Substrate in series [7]: NCCc1ccc(O)c(O)c1
Put plainly: spectrophotometric laccase assay, product formation. It counts as biochemical, Trametes versicolor. Conditions: pH for this enzyme not stated.

Substrate in series [8]: Oc1ccc(O)cc1
The series is described as above. It counts as biochemical, Trametes versicolor. Conditions: pH for this enzyme not stated.

Setting [9] is: pH 7.0, allosteric sigmoidal fit.

B1: DmMCO1T (Drosophila melanogaster) (protein)
chain: DIWTAEWYRNHPCNRDCQVGAEPMTCRYKFVVEWYQTFSKACYDCPRNLTDCSRPHCVMGDGLERSITVVNRMMPGPAIEVCEGDEIVVDVKNHLLGESTSIHWHGLHQKKTPYMDGVPHITQCPITPHATFRYSFPADLSGTHFWHSHTGMQRGDGVFGALIIRKPKTAEPHGGLYDFDLSEHVMIVQDWIHDTGASIFSYHHHSRGDNKPHNLLVNGKGRYYNRIWAEAKQAHRRAEERTTQPVEPLPKSQVDFVQTLPRQARLAKTNTTKLFPVNSRQKRGNLNEIPLELVPHQIYTVRRGFRYRFRIINAEYLNCPIVVSIDGHNLTAINSDGFDIEAMDVGSIVTYSGERFDFVLNANLEVGNYWIRLKGLMDCSEVFTSAFQVAILRYEGAPDEEPTAELSYGHKAEGIELNVMNRGPGYPDTKTVAEMRALPIYDHVSGIDHDTLKPEADYKFFIYYDFYTKNNPDFHDKDLYAMDMEMTQQNRLYTPQLNHITLNFPSLALLPSRSQLKDSDFCNETSLMDQGIDCRQEFCKCHHVLQVPLGAVVEMIIVDEGFQYYANHPFHLHGNAFRVMGLERLGENVTVEMIKQLDQFNLLKRNLDNPPVKDTVTIPDGGYTIIRFEASNPGYWLFHCHIEFHAEIGMALVFKVGNDDQMVPVPENFPTCGDYNPDLRSDGGTTEDSGSSKPITATPPNTGGGGSG
B1: in series [1], the Michaelis constant (Km) was determined as 7.0 ± 0.93 mM, the kcat is 0.317 ± 0.0183 s⁻¹ and the specificity constant (kcat/Km) is 50 M⁻¹ s⁻¹. Also, in series [2], the Km stood at 14.4 ± 0.91 mM, the kcat worked out at 1.03 ± 0.035 s⁻¹ and the kcat/Km is 66.7 M⁻¹ s⁻¹. Besides, in “purified protein [3]” (setting [9]), the K0.5 is 0.29 ± 0.05 mM, the kcat turned out to be 42.8 ± 5.25 s⁻¹ and the kcat/Km turned out to be 147000 M⁻¹ s⁻¹.

B2: AgMCO3 (Anopheles gambiae) (protein)
chain: QSWLNTLLEQSNGTLDVSTFPGEQCLRECDNTQPRICHFSWTMEHYHVMGPACRDCAKGNHTDCYHPACITADGVERGVMSLNRKIPGPTISVCRHDLIVVDITNAMAGTSAAIHWHGLHQRATPYMDGVPFITQCPIGFGNTFRYAFLATEPGTQFYHSHSGHHKVNGHYGALIVREPKRVDPNGDLYHYDTPAHVILGSDWMHIDGEMFMPGLPSAGGIMPINLLINGKGTYHDPKKNETTQTPLEVYTVRRGARFRFRFINAASHVCPLQLQIEDHMMEVIASDSFHLQPRKVDTLVSTSGERYDFVLEANGVKDTYWVRLRSLGPCADLQLEQFAVLRYTTGPFINDAFPTGAPPTYEEPFRNVATANHPNATCGRPEFGDYCITDFQAYDTDEDVINGVPDHQLTFGFYNYPVSFESMFESNRYEHYMNIYGSVMMQGAINNISLAYPPFSLLTQPEKIRDDTFCDEDNRPDSCSDRQLCTCTHRVKINLGDIVELYILDLTPSVNDLNHPFHLHGYQMFVMEMSQDRRVPITLEIAQNIARQRLLSRNTVALPPRKDTVSIPSRGYARVRFRADNPGFWLMHCHYEWHTAVGMALVLQVGETSEMVKAPADFPKCDSYTPAVGHLLQGSL
As to B2, in the series “purified protein [3]” (pH 7.0, Michaelis-Menten fit), the K0.5 is reported as 0.64 ± 0.26 mM, the kcat stood at 2.47 s⁻¹ and the kcat/Km was found to be 3880 M⁻¹ s⁻¹.

B3: AgMCO1T (Anopheles gambiae) (protein)
chain: VEPEEGVDFYEELSYDNHPCKRACTLGRKPETCYYRFRLEWYRTLSKACYNCPYNATDCERPHCITGDGVRRNVAVINRMMPGPAIEVCENDIIVVDVENHLMGESTTIHWHGLHQRRTPYMDGVPHVSQCPISPGTTFRYTFRADNPGTHFWHSHTGMQRGDGAFGALIIRKDNDIQELLYDHDLSEHVITVQDWGHEQGVSLFASHHHSTGDNKPPNLLINGRGKYFQRFAKTTPLTTTTTSTEEPALEPETIMAVEPESTTLMEELPTTTVPITDAITPDDTELLQASSNTNLKTVLRAEEVRHRTKRQSRTVNFNAIVVPESKHIPLKVFHVDKGRRYRFRLINAEFLNCPVELSIENHNLTVIASDGFGIQPLEDLGSFVSYAGERFDFIVKANQPIGNYLIRFRGLMDCDERFTSAYQFAVLRYRGAPTDTEYESWPPYDYEAPGVQLNSLNRGPGAENVITIAETSALDQEDLLLLRNETDYKFYVYYDFYGKDNPHFHVPSLYGFQQVVNNTNRLYTPQLNHISMRMPPVPFLPGKDVLDESQFCNETSVRDRNCRQEFCECSHVLQIPLHATVEMVMIDEGFTFDANHPFHLHGHAFRVVGMDRVSRNTTIEDIRRMDEEGRLPRRLKRAPIKDTVTIPDGGYTIIRFIANNPGYWLFHCHIEFHAEIGMSLVLKVGDSSEMLPAPANFPTCYDFKPKLGQLGSGGA
Regarding B3, in series [4], the Km is on record as 35.2 ± 3.59 mM, the kcat was 0.258 ± 0.0183 s⁻¹ and the catalytic efficiency (kcat/Km) is 6.67 M⁻¹ s⁻¹. Further, in series [5], the Km is 31.9 ± 3.75 mM, the kcat was 1.58 ± 0.13 s⁻¹ and the kcat/Km is 50 M⁻¹ s⁻¹. In “purified protein [6]”, the K0.5 stood at 0.12 ± 0.02 mM, the kcat was 15.3 ± 1.4 s⁻¹ and the catalytic efficiency (kcat/Km) was 126000 M⁻¹ s⁻¹.

B4: TvLac-α (Trametes versicolor) (protein)
chain: AIGPVASLVVANAPVSPDGFLRDAIVVNGVVPSPLITGKKGDRFQLNVDDTLTNHSMLKSTSIHWHGFFQAGTNWADGPAFVNQCPIASGHSFLYDFHVPDQAGTFWYHSHLSTQYCDGLRGPFVVYDPKDPHASRYDVDNESTVITLTDWYHTAARLGPRFPLGADATLINGLGRSASTPTAALAVINVQHGKRYRFRLVSISCDPNYTFSIDGHNLTVIEVDGINSQPLLVDSIQIFAAQRYSFVLNANQTVGNYWVRANPNFGTVGFAGGINSAILRYQGAPVAEPTTTQTTSVIPLIETNLHPLARMPVPGSPTPGGVDKALNLAFNFNGTNFFINNATFTPPTVPVLLQILSGAQTAQDLLPAGSVYPLPAHSTIEITLPATALAPGAPHPFHLHGHAFAVVRSAGSTTYNYNDPIFRDVVSTGTPAAGDNVTIRFQTDNPGPWFLHCHIDFHLDAGFAIVFAEDVADVKAANPVPKAWSDLCPIYDGLSEANQ
Take B4: in series [7], the Km worked out at 0.055 ± 0.005 mM, the kcat is 11.5 ± 0.18 s⁻¹ and the kcat/Km turned out to be 210000 M⁻¹ s⁻¹. Besides, in series [8], the Km is reported as 0.038 ± 0.006 mM, the kcat came to 32.7 ± 1.22 s⁻¹ and the kcat/Km was determined as 861000 M⁻¹ s⁻¹.

The Km is the substrate concentration at which the rate is half of its maximum. For orientation: kcat means the number of substrate molecules converted per active site and unit of time at saturation. One may read the kcat/Km as the turnover number divided by the Michaelis constant.
